1 molecule from paper PMC10980163, “Integrin-linked kinase-frizzled 7 interaction maintains cancer stem cells to drive platinum resistance in ovarian cancer” (Research Square, 2024) can be followed below.

The assay concerns the target T1, recombinant human full length Fzd7 (human, UniProt O75084 33-574).
T1 construct: also called full-length recombinant Fzd7
In words: co-IP; recombinant human full-length Fzd7 and ILK mixed 1:1 in lysis buffer, incubated overnight at 4 °C with antibody (anti-Fzd7 in Fig. 4D); Western blot for ILK and Fzd7. The conditions noted are these: both partners purified. A general note: A western blot detects proteins with antibodies after separation by electrophoresis.

B1: recombinant human full-length ILK (enzyme, UniProt Q13418 1-452, looked up)
chain: MDDIFTQCREGNAVAVRLWLDNTENDLNQGDDHGFSPLHWACREGRSAVVEMLIMRGARINVMNRGDDTPLHLAASHGHRDIVQKLLQYKADINAVNEHGNVPLHYACFWGQDQVAEDLVANGALVSICNKYGEMPVDKAKAPLRELLRERAEKMGQNLNRIPYKDTFWKGTTRTRPRNGTLNKHSGIDFKQLNFLTKLNENHSGELWKGRWQGNDIVVKVLKVRDWSTRKSRDFNEECPRLRIFSHPNVLPVLGACQSPPAPHPTLITHWMPYGSLYNVLHEGTNFVVDQSQAVKFALDMARGMAFLHTLEPLIPRHALNSRSVMIDEDMTARISMADVKFSFQCPGRMYAPAWVAPEALQKKPEDTNRRSADMWSFAVLLWELVTREVPFADLSNMEIGMKVALEGLRPTIPPGISPHVCKLMKICMNEDPAKRPKFDMIVPILEKMQDK
notes: Integrin-linked kinase (ILK), human, recombinant, full length; also called full-length recombinant ILK
As for B1, the binding result is given as “binds”.
